Measurements from the RNAGym collection of RNA variant scans (doi:10.1101/gr.219683.116).

B1: mRNA-splicing (parent)
chain: AGUUGCUGCUGGGAGCUCCAGCACAGUGAAAUGGACAGAAGGGCAGAGCAA

Variants of: B1
Test: exon inclusion enrichment index; higher = more inclusion; WT1 exon 5 minigene, HEK293

| Variant | exon inclusion enrichment index |
| --- | --- |
| AGUUGAAGAAGGGAGCUCCAGCACAGUGAAAUGGACAUCAGGGCAGAGCAA | 0.692 |
| AGUUGAAGAAGGGAGCUCCAGCACAGUGAAAUGGACAUGAGGGCAGAGCAA | 0.321 |
| AGUUGAAGAAGGGAGCUCCAGCACAGUGAAAGAGACAGAAGGGCAGAGCAA | 0.11 |
| AGUUGAAGAAGGGAGCUCCAGCACAGUGAAAGCGACAGAAGGGCAGAGCAA | 0.75 |
| AGUUGAAGAAGGGAGCUCCAGCACAGUGAAAGUGACAGAAGGGCAGAGCAA | 0.178 |
| AGUUGAAGAAGGGAGCUCCAGCACAGUGAAAUGGACAGAAACGCAGAGCAA | 1.25 |
| AGUUGAAGAAGGGAGCUCCAGCACAGUGAAAUGGACAGAAAAGCAGAGCAA | 0.559 |
| AGUUGAAGAAGGGAGCUCCAGCACAGUGAAAUGGACAGAAAUGCAGAGCAA | 0.617 |
| AGUUGAAGAGAGGAGCUCCAGCACAGUGAAAUGGACAGAAGGGCAGAGCAA | 1.24 |
| AGUUGAAGAGCGGAGCUCCAGCACAGUGAAAUGGACAGAAGGGCAGAGCAA | 1.95 |
| AGUUGAAGAAGGGAGCUCCAGCACAGUGAAACUGACAGAAGGGCAGAGCAA | 0.476 |
| AGUUGAAGAAGGGAGCUCCAGCACAGUGAAACAGACAGAAGGGCAGAGCAA | 0.27 |
| AGUUGAAGAAGGGAGCUCCAGCACAGUGAAACCGACAGAAGGGCAGAGCAA | 1.09 |
| AGUUGAAGAAGGGAGCUCCAGCACAGUGAAAUGGACAGAAGGGCAUUGCAA | 1.03 |
| AGUUGAAGAAGGGAGCUCCAGCACAGUGAAAUGGACAGAAGGGCAUCGCAA | 1.79 |
| AGUUGAAGAAGGGAGCUCCAGCACAGUGAAAUGGACAGAAGGGCAUGGCAA | 0.587 |
| AGUUGAAGACGGGAGCUCCAGCACAGUGAAAUGGACAGAAGGGCAGAGCAA | 2.59 |
| AGUUGAAGAGGGGAGCUCCAGCACAGUGAAAUGGACAGAAGGGCAGAGCAA | 0.498 |
| AGUUGAAGAAGGGAGCUCCAGCACAGUGAAAUGGACAGAAGGGCAAUGCAA | 0.928 |
| AGUUGAAGAAGGGAGCUCCAGCACAGUGAAAUGGACAGAAGGGCAACGCAA | 1.64 |
| AGUUGAAGAAGGGAGCUCCAGCACAGUGAAAUGGACAGAAGGGCAAGGCAA | 0.249 |
| AGUUGAAGAAGGGAGCUCCAGCACAGUGAAAUGGACAGAAGUUCAGAGCAA | 1.61 |
| AGUUGAAGAAGGGAGCUCCAGCACAGUGAAAUGGACAGAAGUACAGAGCAA | 1.42 |
| AGUUGAAGAAGGGAGCUCCAGCACAGUGAAAUGGACAGAAGUCCAGAGCAA | 0.532 |
| AGUUGAAGAAGGGAGCUCCAGCACAGUGAAAUGGACAGAAGGGCACCGCAA | 0.943 |
| AGUUGAAGAAGGGAGCUCCAGCACAGUGAAAUGGACAGAAGGGCACGGCAA | 1.23 |

| Variant | exon inclusion enrichment index |
| --- | --- |
| AGUUGAAGAAGGGAGCUCCAGCACAGUGAAAUGGACAGAAGGGCACUGCAA | 0.833 |
| AGUUGAAGAAGGGAGCUCCAGCACAGCCAAAUGGACAGAAGGGCAGAGCAA | 1.36 |
| AGUUGAAGAAGGGAGCUCCAGCACAGCUAAAUGGACAGAAGGGCAGAGCAA | 0.4 |
| AGUUGAAGAAGGGAGCUCCAGCACAGCAAAAUGGACAGAAGGGCAGAGCAA | 0.886 |
| AGUUGAAGAAGGGAGCUCCAGCACAGUGAAAUGGACAGAAAGGCAGAGCAA | 0.4 |
| AGUUGAAGAAGGGAGCUCCAGCACAGUGAAAUGGACAGAAUGGCAGAGCAA | 0.866 |
| AGUUGAAGAAGGGAGCUCCAGCACAGUGAAAUGGACAGAACGGCAGAGCAA | 2.07 |
| AGUUGAAGAAGGGAGCUCCAGCACAGUGAAAUGGACAGAAGCGCAGAGCAA | 1.99 |
| AGUUGAAGAAGGGAGCUCCAGCACAGUGAAAUGGACAGAAGUGCAGAGCAA | 0.988 |
| AGUUGAAGAAGGGAGCUCCAGCACAGUGAAAUGGACAGAAGAGCAGAGCAA | 1.81 |
| AGUUGAAGACAGGAGCUCCAGCACAGUGAAAUGGACAGAAGGGCAGAGCAA | 1.91 |
| AGUUGAAGACUGGAGCUCCAGCACAGUGAAAUGGACAGAAGGGCAGAGCAA | 3.37 |
| AGUUGAAGACCGGAGCUCCAGCACAGUGAAAUGGACAGAAGGGCAGAGCAA | 4.28 |
| AGUUGAAGAAGGGAGCCGCAGCACAGUGAAAUGGACAGAAGGGCAGAGCAA | 0.655 |
| AGUUGAAGAAGGGAGCCUCAGCACAGUGAAAUGGACAGAAGGGCAGAGCAA | 0.491 |
| AGUUGAAGAAGGGAGCCACAGCACAGUGAAAUGGACAGAAGGGCAGAGCAA | 0.476 |
| AGUUGAAGAAGGGAGCUCCAGCACAGGCAAAUGGACAGAAGGGCAGAGCAA | 0.369 |
| AGUUGAAGAAGGGAGCUCCAGCACAGGAAAAUGGACAGAAGGGCAGAGCAA | 0.869 |
| AGUUGAAGAAGGGAGCUCCAGCACAGGUAAAUGGACAGAAGGGCAGAGCAA | 0.003 |
| AGUUGAAGAAGGGAGCUCCAGCACAGUGAAAGGGACAGAAGGGCAGAGCAA | 0.041 |
| AGUUGAAGAAGGGAGCUCCAGCACAGUGAAAAGGACAGAAGGGCAGAGCAA | 0.442 |
| AGUUGAAGAAGGGAGCUCCAGCACAGUGAAACGGACAGAAGGGCAGAGCAA | 1.37 |
| AGUUGAAGAAGGGAGCUCCAGCACAGUGAAAUGGACAGAAGGGCAGAACAA | 1.3 |
| AGUUGAAGAAGGGAGCUCCAGCACAGUGAAAUGGACAGAAGGGCAGAUCAA | 1.17 |
| AGUUGAAGAAGGGAGCUCCAGCACAGUGAAAUGGACAGAAGGGCAGACCAA | 1.15 |
